Experiment: yeast display, Sf9 membrane polyspecificity reagent, FACS + sequencing; frameworks hold sequencing errors
Procedure, shortened: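 A synthetic nanobody library was expressed on Saccharomyces cerevisiae BJ5465 by galactose induction for 36–48 hours. The library was stained for 1 hour at 4 °C with 10% biotinylated, detergent-solubilized Sf9 membrane reagent and enriched with streptavidin microbeads before FACS. Low and high (top ~1%) gates were set on anti-HA fluorescence for expression and streptavidin fluorescence for reagent binding, and each polyreactivity label reflects the gate of origin.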

Sequence	polyreactivity (PSR sort gate)
QVQLVESGGGLVQAGGSLRLSCAASGYTLGVNAMGWYRQAPGKERELVAAINYIDTRTYYADSVKGRFTISRDNAKNTVYLQMNSLKPEDTAVYYCAALPYVPWVKRYYYWGQGTQVTVSS	low polyreactivity
QVWLQESRGGLVQASGSLRLSCAASGTISRDIFMGWYRQAPGKEREFVATIAQGGITNYADSVKGRFTISRDNAKNTVYLLMISVKPGDTEVYYCAARDGNCYWFYYWGQGTQVTVSS	high polyreactivity
QVQLVESGGGLVQAGGSLRLSCAASGSTFDYYAMGWYRQAPGKERELVAAITWSGGTTYYADSVKGRFTISRDNAKNTVYLQMNSLKPEDTAVYYCAAESTLPIIDRDDYWGQGTQVTVSS	low polyreactivity
QVQLVESGGGLVQAGGSLRLSCAASGYTFVLNAMGWYRQAPGKEREFFAAITWSGGSTYYADSVKGRFTISRDNAKNTVYLQMNSLKPEDTAVYYCARSSRGKLDYWGQGTQVTVSS	low polyreactivity
QVQLVESGGGLVQAGGSLRLIFAASGRTFFSYVMGWYIQAPGKERELVAAITWRGGSTYYADSVKGRFTISRDNAKNTVYLQMNSLKPEDTAVYYCAAPSHGSTSDRYYKFYYWGQGTQVTVSS	high polyreactivity
QVQLVESGGGLVQAGGSLRLSCAASGSNFNYNDMGWSRQAPGKERELVAAIDSSGTSTYYADSVKGRFTISRDNAKNTVYLQMNSLKPEDTAVYYCNADSSLGFGYWGQGTQVTVSS	low polyreactivity
QVQLVESGGGLVQAGGSLRLSCAASGIIFNRYAMGRYRQAPGKERELVASITSSGGSTHYADSVKGRFTISRDNAKNTVYLQMNSLKPEDTAVYYCAKQFPNNYRYYLHYYYWGQGTQVTVSS	low polyreactivity
QVQLVESGGGLVQAGGSLRLSCASSGFTFYIYVMGWYRQAPGKEREWVAAISSRGGSTYYADSVKGRFTISRDNAKNTVNSQMNSLKPEDTAVYYCNAVHYVLYGDYDYWGQGTQVTVSS	high polyreactivity
QVQLVESGGGLVQAGGSLRLSCAASGRTFYDNTMGWYRQAPGKERELVAAITRNGGSTYYADSVKGRFTISRDNAKNTVYLQMNTLKPEDTAVYYCNAELGILSGVAEGPTFREYDYWGQGTQVNVSS	low polyreactivity
QVQLVESGGGLVQAGVSLRLSCAASGSTFTYYAMGWYRQAPGKERELVAAITNSGGSTYYAVSVKGRFTISRDNAKNTVYLQMNSLKPEDTAVYYCAATRVDSDDRTRFYYWGQGTQVTVSS	high polyreactivity
QVQLGESGGCLVQAGGSLRLICAASGFIFDRYVMGWYRQAPGKESELVAAINRSGGSTYYADSVKGRFTISRDNAKNTVYLQMNSLKRVDTAVYYCADVRPGSFTVEGYYCGQGTQVTVSS	high polyreactivity
QVQLVETGGGLVQAGGSLRLSCAASGRIIDTYAMGWYRQAPGKERELVAAITRRGGSTYYADSVKGRFTISRDNAKNTVYLQMNSLKPEDTAVYYCAKSLVNRHYDYWGQGTQVTVSS	low polyreactivity
QVQLVESGGGLVQAGGSHRFSCAASGRIIYTNAMGWYRQAPGKEREFVAVISWGGDTTYYADSVKGRFTISRDNAKNTVYLQMNSLKPEDTAVYYCNAEWGPTYEIYDSWGPGTQVTVSS	low polyreactivity
QVQLVESGGGLVQAGGSLRLSCAASGSIFKSYAMGWYRQAPGKERELVAAISGSGGRTYYADSVKGRFTISRDNAKNTVYLQMNSLKPEDTAVYYCNALASIRTHTGYAYSPPYDYWGQGTQVTVSS	high polyreactivity
QVQLVESGGGLVQAGGSLRLSCAASGFTFKRYAMGWYRQAPGKERELVAVISSGGSTYYADSVKGRFTISRDNAKNCVYLQMNRLKPEDTAVYYCNAYIGGSSWHTALDYWGQGTQVTVSS	high polyreactivity
QVQLVESGGGLVQAGGSLRLSCAASGFIFYRNTKGWYRQAPGKEREFVAAIRWRGGSTYYADSVKGRFTISRDNAKNTVYLQMNSLNPEDTAVYYCNAPYKQDYDYWGQGTQVTVSS	high polyreactivity

Sequence	polyreactivity (PSR sort gate)
QVQLVESGGGLVQAGGSLRLSCAASGSIFDYYTMGWYRQAPGKERELVAVIDNSGGSTYYADSVKGRFTISRDNAKNTVYLQMNSLKPEDTAVYYCARRFYNYVSYSNGGATLYDYWGQGTQVTVSS	high polyreactivity
QVQHVESGGGLVQAGGSLRLSCAASGRTFGWYTMGWYRQAPGKEREFVAAISSSDTSTYYADSVKGRFTISRDNAKNTVYLQMNSLKPEDTAVYYCAADPPSWQWFVGYSYDYWGQGTQVTVSS	low polyreactivity
QVQLVESGGGLVQAGGSLRLSCAASGSTFELYAMGWYRQAPGKERELVASITGDSTNYADSVKGRFTISRDNAKNTVYLQMNSLKPEDTAVYYCAKPYYDGRTHFDSWGQGTQVTVSS	low polyreactivity
QVQLVESGGGLVQAGGSLRLSCAASGSIFKRNAMGWYRQAPGKERELVASISSGGSTHYADSVKGRFTISRDNAKNTVYFQMNSLKPEDTAVYYCAATSIRWSVGSFRRDYWGQGTQVTVSS	low polyreactivity
QVQLVESGGGLVQAGGSLRLSCAASGSICVRNTMGWYRQAPGKERELVAAISSRGTSTYYADSVKGRFTISRDNAKNTVYLQMNSLKPEDTAVYYCAARVYPYNSWGQGTQVTVSS	high polyreactivity
QVQLVESGGGLVQAGGSLRLSCAASGLIFSRNAMGWYRQAPGKERELVAAISGGGGSTYYADSVKGRFTISRDNAKNTVYLQMNSLKPEDTAVYYCAAKGYWWRTPWIATYDYWGQGTQVTVSS	high polyreactivity
QVQLVESGGGLVQAGGSLRLSCAASGFTFRGNAMGWYRQAPGKERELVAAITSSDDSTYYADSVKGRFTISRDYAKNTVYLQMNSLKPEDTAVYYCAAEGVHYAGDYGTGYDYWGQGTQVTVSS	low polyreactivity
QVQLVESGGGLVQAGGSLRLSCAASGYIFARYAMGWYRQAPGTERELVARITTGDSTYYADSVKGRFTISRDNAKNTVYLQMNSLKPEDTAVYYCAADDNVSVVGLYYWGQGTQVTVSS	low polyreactivity
QVQLVESGGGLVQAGGSLRLSCAASGFTFTQYGMGWYRQAPGKEREFVATIRFSGDNTYYADSVKGRFTISRDNAKNTVYLQMNSLKPEDTAVYYCNADNRAFFVYPVSKRYDSWGQGTQVTVSS	low polyreactivity
QVQLVESGGGLVQAGGSLRLSCAASGRTIKYTAMGWYRQAPGKERDLVAAITYSGGSTYYADSVKGRFTISRDNAKNTVYLQMNSLKPEDTAVYYCGQGTQVTVSS	low polyreactivity
QVQRVESGGGLVQAGGSLRLSCAASGVIFDDNAMGWYRQAPGKERELVAAITYRGGSTYYADSVKGRFTISRDNAKNTVYLQMNSLKPEDTAVYYCAAGGTARDDSWGQGTQVTVSS	low polyreactivity
QVQLVESGGGLVQAGGSLRLSCDASGSIFYRNVMGWYRQAPGKERELVAAISGRGGSTYYADSVKGRFTISRDNAKNTVYLQMNSLKPEDTAVYYCAADKGYRYISYYYWGQGTQVTVSS	high polyreactivity
QVQLVESGGGLVQAGGSLRLSCAASGLTFGIYTMGWYRQAPGKERELVAAINWIGTRTYYADSVKGRFTLSRDNAKNTVYLQMNSLKPEDTAVYYCATVIGYTKRKYDYWGQGTQVTVSS	high polyreactivity
QVQLVETGGGLVQAGGSLRLSCAASGFTFRFYAMGWSRQPPGKERELVAAISRGGSTYYADSVKVRFTISRYNEKNTVYLQMNSLKPEDTAVYYCAKRGRYGGYWGQGTQVTVSS	high polyreactivity
QVQLVESGGGLVQAGGSLRLICAASGRIFYHNAMGWYRQAPGKERELDAAITWSGGSTYYADSVKGRFTISRDNAKNTVYLQMNSLKPEDTAVYYCAALWLVNHYYPSQDYDYWGQGSQVTVSS	high polyreactivity
QVQLVESGGGLVQAGGSLRLSCAASGRTFGYNALGWYRQAPGKERELVAAINWSGASTYYADSVKGRFTISRDKAKNTVYLQMNSLKPEDTAVYYCAKVTRGSQYDYWGQGTQVTVSS	low polyreactivity
